The values that follow come from patent US20110117206A1, “PHOSPHOPEPTIDES AND USE OF THE SAME” (PLANT BIOSCIENCE LIMITED, priority 2008, published 2011).

Holding throughout (assay type): physicochemical
Data set [1] can be described thus: SAXS of free OPN and OPN 1-149 (Guinier, worm-like chain model). The note with it: free peptide, 5-15 mg ml^−1, average of three determinations. The method, then:
In a SAXS experiment, wherein measurements were made on station 2.1 at the CCLRC Daresbury Laboratory, the normalised scattered intensity I(q) was measured. For a dispersion of isotropic, monodisperse particles, I(q) is related to the inter-particle structure factor, S(q) and the particle scattering factor P(q) by
where N is the number of particles of mean excess scattering length density over the solvent Δ ρp, volume Vp and mass M. The scattering wave vector is q=4π sin θ/λo, where θ is half the scattering angle and λo is the wavelength of the X-rays. In a dilute solution where S(q)=1 and a fraction α′ of the peptide chains have formed a polydisperse distribution of nanoclusters, equation (22) becomes
The molar volumes of the unphosphorylated residues were taken from Jacrot and Zaccai (Jacrot, B. & Zaccai, G. (1981). Determination of Molecular-Weight by Neutron-Scattering. Biopolymers 20, 2413-2426). The molar volume of ortho-L-phosphoserine was calculated from the unit cell volume of the amino acid, as determined by Sundaralingam (Sundaralingam, M. & Putkey, E. F. (1970). Molecular structures of amino acids and peptides. II. A redetermination of the crystal structure of L-O-serine phosphate. A very short phosphate-carboxyl hydrogen bond. Acta Crystallographica B26, 790-800) and 11 Å^3 subtracted to give the residue volume of 168.7 Å^3. The difference in residue volumes of serine and phosphoserine was then used to calculate a residue volume for phosphothreonine of 191.7 Å^3. The X-ray forward scattering amplitudes of the residues were calculated from the elemental compositions using atomic scattering factors. For OPN 16P 1-149 and OPN 28P 1-262, the scattering length densities in units of […] were calculated to be 12.56 and 12.48, respectively. For the nanoclusters prepared with OPN 16P 1-149 it was assumed that the phosphate moieties of the 10 phosphorylated residues found in the three PCs, were assigned to the core, giving ρshell=12.40×10^10 cm^−2. For the core, a hydrated CaP with the composition given by equation (2) gave ρcore=19.1×10^10 cm^−2. Radii of gyration of the whole protein and N-terminal polypeptide were independent of concentration in the range 5-15 mg ml^−1. For OPN the average of three determinations by the Guinier method was 5.50±0.17 nm and the corresponding value for OPN 1-149 was 2.17±0.24 nm. For OPN with 262 residues, equation (28) predicts a radius of gyration of 5.38 nm and for the N-terminal plasmin peptide of 149 residues, the predicted value is 3.84 nm.
Random-coil behavior and the dimensions of chemically unfolded proteins. Proceedings of the National Academy of Sciences of the United States of America 101, 12491-12496). […]

Data set [2] can be described thus: Partition of salts by ultrafiltration and ion equilibria model of nanocluster solutions. The note with it: nanocluster solution at pH 7.0.
Experimental: Nanocluster solutions of the Ca-free OPNmix in the Mg-free Buffer A were prepared by the urea/urease method with a pH between 5.0 and 7.5. They were allowed to equilibrate before ultrafiltration through Vivaspin 0.5 ml concentrators (Product VS0101 with a molecular weight cut off of 10,000 Da, Vivascience AG, Germany) using a centripetal field of 5000×g for 15 min. […] The ion activity product in the ultrafiltrates were calculated at each pH for a range of y values in order to find the value that was independent of pH.
In addition to the work with the OPNmix sample, a single determination was made of the partition of salts in a nanocluster solution at pH 7.0 prepared with the pure OPN 1-149 peptide.
Data set [3] can be described thus: Stability and reconstitution of nanocluster solutions (urea/urease method). The note with it: in the original volume of water; clear solution, nanocluster size unchanged. How it is done:
Nanoclusters were prepared by the urea/urease method, as discussed above and as known in the art (Holt, C., Wahlgren, N. M. & Drakenberg, T. (1996). Ability of a beta-casein phosphopeptide to modulate the precipitation of calcium phosphate by forming amorphous dicalcium phosphate nanoclusters. Biochemical Journal 314, 1035-1039) but wherein the phosphopeptide was provided by either the OPNmix, discussed above, or fractions from the gel filtration separation. Typically, an OPNmix sample (25 mg) was dissolved in 1 ml of water and dialysed overnight against 500 ml of 1 mM EDTA followed by exhaustive dialysis against deionised water to remove Ca ions. The Ca-free peptides were recovered by freeze drying.
An initial under-saturated solution of salts at pH 5 with the composition 22 mM Ca(NO3)2, 20 mM KH2PO4, 36 mM KNO3 and 1.5 mM NaN3 (Mg-free Buffer A) was used to dissolve the peptide. Sufficient urea (0-30 mM) was added from a stock solution of 200 mM to give the desired final pH after hydrolysis with 2 units of urease from Canavalia ensiformis (Calbiochem product no. 666133). These conditions allowed the pH to rise to within 0.004 units of the target value within a few minutes. […]

For “OPN 1-149: N-terminal osteopontin phosphopeptide fragment from bovine milk, probably formed by plasmin; gel filtration fraction F3a”, the “radius of gyration by the Guinier method” value in data set [1] worked out at 2.17±0.24 nm. Also, in data set [2], the “ultrafiltrate concentration of Ca, experimental” value is 1.4 mM; the “ultrafiltrate concentration of Ca^2+, experimental” value is 1.1 mM; the “ultrafiltrate concentration of Pi, experimental” value was 12.1 mM. Further, the “dissolution of freeze-dried nanocluster powder” value in data set [3] is reported as “dissolve virtually instantly”.
